Results: patent publication EP2210617A1
One block for each binder: values may come before it.

What was measured:
[1] = biological target: GFRα2/Fc fusion protein (R&D Systems) (human); test: GFRα2 ELISA (GFRα2/Fc on anti-Fc plate, Ret-AP detection) on conditioned medium of transfected HiB5 cells; reference is medium of wt NTN transfected cells
[2] = biological target: GFRα2/Fc fusion protein (R&D Systems) (human); test: GFRα2 ELISA (GFRα2/Fc on anti-Fc plate, Ret-AP detection) on conditioned medium of transfected ARPE-19 cells; reference is medium of wt NTN transfected cells
[3] = biological target: GFRα2/Fc fusion protein (R&D Systems) (human); test: GFRα2 ELISA (GFRα2/Fc on anti-Fc plate, Ret-AP detection) on conditioned medium of transfected HEK293 cells; reference is medium of wt NTN transfected cells
[4] = biological target: GFRα2/Fc fusion protein (R&D Systems) (human); test: GFRα2 ELISA (GFRα2/Fc on anti-Fc plate, Ret-AP detection) on conditioned medium of transfected CHO cells; reference is medium of wt NTN transfected cells

- fold higher NTN binding (relative GFRα2 binding activity, wt construct set to 1) [1]: 7.5 fold
- fold higher NTN binding (relative GFRα2 binding activity, wt construct set to 1) [2]: 117 fold
- fold higher NTN binding (relative GFRα2 binding activity, wt construct set to 1) [3]: 90 fold
- fold higher NTN binding (relative GFRα2 binding activity, wt construct set to 1) [4]: 4.1 fold
B1: mature human Neurturin secreted from cells transfected with the dpro-NTN construct (deltapro102NTN) (ligand)
chain: ARLGARPCGLRELEVRVSELGLGYASDETVLFRYCAGACEAAARVYDLGLRRLRQRRRLRRERVRAQPCCRPTAYEDEVSFLDAHSRYHTVHELSARECACV

- fold higher NTN binding (relative GFRα2 binding activity, wt construct set to 1) [1]: 162 fold
- fold higher NTN binding (relative GFRα2 binding activity, wt construct set to 1) [2]: 771 fold
- fold higher NTN binding (relative GFRα2 binding activity, wt construct set to 1) [3]: 278 fold
- fold higher NTN binding (relative GFRα2 binding activity, wt construct set to 1) [4]: 66 fold
B2: mature human Neurturin secreted from cells transfected with the IgSP-NTN construct (IgSP-102NTN) (ligand)
chain: B1 chain
